Measured values from patent US20120020985A1 (MEDICAL RESEARCH COUNCIL, published 2012).

Legend:
Test in all cases: ELISA, receptor coated at 2 ug/ml, streptavidin-HRP, A405
rhIL-17RD (Sef) = biological target: T1, rhIL-17RD (Sef) (human, UniProt Q8NFM7 27-299, limits assumed)
T1 construct: Bought from R&D Systems, catalog 2275-IL; also called human IL-17RD; IL-17D receptor
T1 sequence (looked up): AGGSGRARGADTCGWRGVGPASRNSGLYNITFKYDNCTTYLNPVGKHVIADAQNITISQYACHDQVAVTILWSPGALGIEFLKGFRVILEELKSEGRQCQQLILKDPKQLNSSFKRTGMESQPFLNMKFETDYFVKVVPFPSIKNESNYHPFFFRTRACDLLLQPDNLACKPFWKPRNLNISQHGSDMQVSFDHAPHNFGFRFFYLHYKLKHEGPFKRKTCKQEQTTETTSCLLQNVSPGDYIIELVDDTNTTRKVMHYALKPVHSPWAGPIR
Description: (§1) In brief, ELISA plates were coated with IL-17R-family members; IL-17RA, IL-17BR, IL-17RC or IL-17RD, or IL-13Rα control, at 2 μg/ml, incubated overnight at 4° C., washed in PBS/0.05% tween and blocked in PBS/10% FCS at room temperature for 4 hrs. Biotinylated D9.2 binding was detected using streptavidin-HRP and ELISA development solution and measuring absorbance at 405 nm.
(§2) ELISA plates were coated with IL-17R-family members; IL-17RA, IL-17BR, IL-17RC, or IL-17RD, or IL-13Rα control (R&D Systems) at 2 μg/ml overnight at 4° C. before washing in PBS/0.05% tween and blocking in PBS/10% FCS at room temperature for 4 hrs. Biotinylated D9.2 was added at 1 μg/ml in PBS/10% FCS and incubated overnight at 4° C. Plates were then washed before streptavidin-HRP was added and incubated for 1 hr at room temperature. Plates were then washed a final time before adding ELISA development solution and measuring the absorbance at 405 nm.

rmIL-17RD (Sef) = biological target: T2, rmIL-17RD (Sef) (mouse, UniProt Q8JZL1 27-299, limits assumed)
T2 construct: Bought from R&D Systems, catalog 2276-ML; also called mouse IL-17RD; IL-17D receptor
T2 sequence (looked up): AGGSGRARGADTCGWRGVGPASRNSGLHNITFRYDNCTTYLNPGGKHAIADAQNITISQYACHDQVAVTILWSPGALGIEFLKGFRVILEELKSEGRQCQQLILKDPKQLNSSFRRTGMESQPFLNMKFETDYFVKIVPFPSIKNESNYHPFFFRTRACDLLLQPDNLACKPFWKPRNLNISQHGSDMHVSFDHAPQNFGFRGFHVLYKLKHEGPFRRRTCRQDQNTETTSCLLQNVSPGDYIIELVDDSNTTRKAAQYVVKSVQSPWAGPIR
Description: as §1, §2

rhIL-17RA-Fc = biological target: T3, rhIL-17RA-Fc (human, UniProt Q96F46 33-320)
T3 construct: Bought from R&D Systems, catalog 177-IR; also called human IL-17RA; IL-17A receptor; not shown: Fc portion, not described
T3 sequence (looked up): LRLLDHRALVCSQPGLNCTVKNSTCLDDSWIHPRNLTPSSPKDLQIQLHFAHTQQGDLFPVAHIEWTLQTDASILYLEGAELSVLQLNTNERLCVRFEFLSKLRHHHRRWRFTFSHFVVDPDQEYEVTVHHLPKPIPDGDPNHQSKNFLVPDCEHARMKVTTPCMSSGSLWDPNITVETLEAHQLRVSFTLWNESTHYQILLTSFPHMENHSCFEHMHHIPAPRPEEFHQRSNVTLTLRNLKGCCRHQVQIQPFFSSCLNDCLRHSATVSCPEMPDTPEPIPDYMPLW
Description: as §1, §2

rmIL-17RA-Fc = biological target: T4, rmIL-17RA-Fc (mouse, UniProt Q60943 32-322)
T4 construct: Bought from R&D Systems, catalog 4481-MR; also called mouse IL-17RA; IL-17A receptor; not shown: Fc portion, not described
T4 sequence (looked up): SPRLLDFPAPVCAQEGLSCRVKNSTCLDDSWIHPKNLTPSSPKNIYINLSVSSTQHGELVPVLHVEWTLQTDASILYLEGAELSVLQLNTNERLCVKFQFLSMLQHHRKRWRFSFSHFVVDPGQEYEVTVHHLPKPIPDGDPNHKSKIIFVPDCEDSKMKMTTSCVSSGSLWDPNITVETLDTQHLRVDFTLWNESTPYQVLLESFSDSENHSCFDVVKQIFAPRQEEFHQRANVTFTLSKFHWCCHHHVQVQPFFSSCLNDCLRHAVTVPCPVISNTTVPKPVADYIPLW
Description: as §1, §2

rhIL-17RC = biological target: T5, rhIL-17RC (human, UniProt Q8NAC3-2 21-467, limits assumed)
T5 construct: Bought from R&D Systems, catalog 2269-IL; also called human IL-17RC; IL-17C receptor
T5 sequence (looked up): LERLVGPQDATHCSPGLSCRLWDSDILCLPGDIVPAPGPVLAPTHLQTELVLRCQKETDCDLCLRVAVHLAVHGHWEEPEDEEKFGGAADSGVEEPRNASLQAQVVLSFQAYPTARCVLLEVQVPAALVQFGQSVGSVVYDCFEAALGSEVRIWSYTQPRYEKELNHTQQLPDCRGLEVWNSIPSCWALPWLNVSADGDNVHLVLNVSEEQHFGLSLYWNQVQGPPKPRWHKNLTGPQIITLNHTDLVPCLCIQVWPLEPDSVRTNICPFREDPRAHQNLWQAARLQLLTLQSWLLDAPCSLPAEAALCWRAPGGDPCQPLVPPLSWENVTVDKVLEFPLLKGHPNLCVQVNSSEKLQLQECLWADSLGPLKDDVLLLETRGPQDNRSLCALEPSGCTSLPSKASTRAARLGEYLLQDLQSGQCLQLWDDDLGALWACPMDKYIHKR
Description: as §1, §2

rmIL-17RC = biological target: T6, rmIL-17RC (mouse, UniProt Q8K4C2 22-464, limits assumed)
T6 construct: Bought from R&D Systems, catalog 2270-ML; also called mouse IL-17RC; IL-17C receptor
T6 sequence (looked up): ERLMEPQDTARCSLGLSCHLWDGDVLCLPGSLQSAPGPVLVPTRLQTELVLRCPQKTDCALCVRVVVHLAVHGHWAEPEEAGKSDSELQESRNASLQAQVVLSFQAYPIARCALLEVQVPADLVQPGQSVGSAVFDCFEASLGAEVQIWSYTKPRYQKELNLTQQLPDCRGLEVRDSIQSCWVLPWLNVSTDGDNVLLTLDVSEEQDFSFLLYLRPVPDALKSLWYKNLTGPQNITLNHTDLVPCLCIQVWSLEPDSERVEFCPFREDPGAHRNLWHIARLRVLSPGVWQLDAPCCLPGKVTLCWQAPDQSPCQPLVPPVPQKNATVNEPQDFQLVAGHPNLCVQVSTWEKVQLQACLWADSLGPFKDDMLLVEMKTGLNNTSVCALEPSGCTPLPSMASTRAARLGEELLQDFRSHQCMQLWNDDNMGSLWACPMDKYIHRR
Description: as §1, §2

B1: anti-IL-17BR clone D9.2 (antibody, V domains shown)
VH: QVQLQQPGAELVRPGASVKLSCKTSGYTFISYWMNWVKQGGPEQGLEWIGRIDPYDSEIQYNQKFKDKAILTVDKSSSAAYMQLISLTSEDSAVYYCARSGGFDWFAYWGQGTLVTVS
VL: DIQMTQSPASLSVSVGETVTITCRASENINSNLAWYQQKKGKSPQLLVYDVTNLADGVPSRFSGSGSGTQYSLKINSLQSEDFGSYYCQHFWRPPYTFGGGTNLEIK
notes: Mouse monoclonal from a hybridoma; heavy chain amplified with an IgG1 constant region primer and light chain with a kappa primer (mouse IgG1 kappa); also called mouse monoclonal antibody D9.2; D9.2 antibody clone
B1: no binding (tested: 1 ug/ml biotinylated D9.2) (rhIL-17RD (Sef)); no binding (tested: 1 ug/ml biotinylated D9.2) (rmIL-17RD (Sef)); no binding (tested: 1 ug/ml biotinylated D9.2) (rhIL-17RA-Fc). B1: no binding (tested: 1 ug/ml biotinylated D9.2) (rmIL-17RA-Fc); no binding (tested: 1 ug/ml biotinylated D9.2) (rhIL-17RC); no binding (tested: 1 ug/ml biotinylated D9.2) (rmIL-17RC).
